This assay deals with human GLP-1 receptor (human) (UniProt P43220). The experiment in a line: cell-based or functional assay.

In patent US20070253966A1 one finds Activity (EC50 relative to Val^8-GLP-1(7-37)OH), CRE-BLAM beta-lactamase reporter in HEK-293 cells expressing human GLP-1 receptor, Activity (EC50 relative to Val^8-GLP-1(7-37)OH), CRE-Luciferase reporter in HEK-293 cells stably expressing human GLP-1 receptor and Activity (EC50 relative to Val^8-GLP-1(7-37)OH, corrected for 2-fold molarity of the dimer), CRE-Luciferase reporter in HEK-293 cells stably expressing human GLP-1 receptor data, which are given here for four substances.

UniProt P43220, sequence (P43220 24-463): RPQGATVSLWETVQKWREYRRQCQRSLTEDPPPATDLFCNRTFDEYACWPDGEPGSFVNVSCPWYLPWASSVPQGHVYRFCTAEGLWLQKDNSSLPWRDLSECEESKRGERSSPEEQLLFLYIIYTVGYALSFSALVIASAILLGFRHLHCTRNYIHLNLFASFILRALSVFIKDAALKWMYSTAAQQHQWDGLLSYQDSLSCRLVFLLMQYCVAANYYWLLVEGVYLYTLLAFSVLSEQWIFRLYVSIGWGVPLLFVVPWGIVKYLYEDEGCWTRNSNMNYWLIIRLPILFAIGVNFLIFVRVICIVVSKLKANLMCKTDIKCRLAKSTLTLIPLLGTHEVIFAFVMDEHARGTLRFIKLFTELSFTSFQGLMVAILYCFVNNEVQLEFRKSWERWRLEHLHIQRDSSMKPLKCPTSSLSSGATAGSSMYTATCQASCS

“Val^8-GLP-1(7-37)OH (from UniProt P01275 21-180) (peptide)” yielded an Activity (EC50 relative to Val^8-GLP-1(7-37)OH), CRE-BLAM beta-lactamase reporter in HEK-293 cells expressing human GLP-1 receptor of 100% and an Activity (EC50 relative to Val^8-GLP-1(7-37)OH), CRE-Luciferase reporter in HEK-293 cells stably expressing human GLP-1 receptor of 100%.

The substance “Gly^8-Glu^22-GLP-1(7-37)-1L-IgG4 (S228P, F234A, L235A) (from UniProt P01275 98-128) (Fc fusion)” registered an Activity (EC50 relative to Val^8-GLP-1(7-37)OH), CRE-BLAM beta-lactamase reporter in HEK-293 cells expressing human GLP-1 receptor of 468% and an Activity (EC50 relative to Val^8-GLP-1(7-37)OH, corrected for 2-fold molarity of the dimer), CRE-Luciferase reporter in HEK-293 cells stably expressing human GLP-1 receptor of 1120%.

Turning to “Gly^8-Glu^22-GLP-1(7-37)-1.5L-IgG4 (S228P, F234A, L235A) (from UniProt P01275 98-128) (Fc fusion)”, the Activity (EC50 relative to Val^8-GLP-1(7-37)OH), CRE-BLAM beta-lactamase reporter in HEK-293 cells expressing human GLP-1 receptor was 314% and the Activity (EC50 relative to Val^8-GLP-1(7-37)OH, corrected for 2-fold molarity of the dimer), CRE-Luciferase reporter in HEK-293 cells stably expressing human GLP-1 receptor worked out at 595%.

Take “Gly^8-Glu^22-GLP-1(7-37)-2L-IgG4 (S228P, F234A, L235A) (from UniProt P01275 98-128) (Fc fusion)”: the Activity (EC50 relative to Val^8-GLP-1(7-37)OH), CRE-BLAM beta-lactamase reporter in HEK-293 cells expressing human GLP-1 receptor turned out to be 301% and the Activity (EC50 relative to Val^8-GLP-1(7-37)OH, corrected for 2-fold molarity of the dimer), CRE-Luciferase reporter in HEK-293 cells stably expressing human GLP-1 receptor is 535%.
